Data set [1] deals with the molecule itself. Description: NMR 15N spin relaxation (overall correlation time against that computed for the helix); 0.5 mM 15N/13C XS20 in NMR buffer (5 mM KPi, 10 mM NaCl, 2 mM β-mercaptoethanol, pH 6.8), 5 °C, 800 MHz.
The target in data set [2] is T1, human HSP90β (named HSP90) (human, UniProt P08238 1-724).
T1 construct: Unlabelled in the NMR titrations
Briefly: NMR titration; 15N-HSQC signal intensity; 0.07 mM 15N/13C XS26 with fresh 0.14 mM unlabelled HSP70 or HSP90 (1:2), 25 °C, 20 mM Hepes, 10 mM NaCl, 5 mM MgCl2, 2 mM ATP, 1 mM DTT, pH 6.8. As to conditions: both partners purified.

The target of data set [3] is T2, human HSP72 (named HSP70) (human, UniProt P0DMV8 1-641).
T2 construct: Unlabelled in the NMR titrations; 2 mM ATP and 5 mM MgCl2 in the buffer
Described as above. Particulars: both partners purified.

Data set [4] deals with the molecule itself. Description: NMR 15N spin relaxation (overall correlation time against that computed for the helix); 0.05 and 0.5 mM XS20, 0.5 mM XS23, 0.5 mM XS26 in NMR buffer (5 mM KPi, 10 mM NaCl, 2 mM β-mercaptoethanol, pH 6.8), 25 °C, 800 MHz.

T2 sequence (P0DMV8 whole entry): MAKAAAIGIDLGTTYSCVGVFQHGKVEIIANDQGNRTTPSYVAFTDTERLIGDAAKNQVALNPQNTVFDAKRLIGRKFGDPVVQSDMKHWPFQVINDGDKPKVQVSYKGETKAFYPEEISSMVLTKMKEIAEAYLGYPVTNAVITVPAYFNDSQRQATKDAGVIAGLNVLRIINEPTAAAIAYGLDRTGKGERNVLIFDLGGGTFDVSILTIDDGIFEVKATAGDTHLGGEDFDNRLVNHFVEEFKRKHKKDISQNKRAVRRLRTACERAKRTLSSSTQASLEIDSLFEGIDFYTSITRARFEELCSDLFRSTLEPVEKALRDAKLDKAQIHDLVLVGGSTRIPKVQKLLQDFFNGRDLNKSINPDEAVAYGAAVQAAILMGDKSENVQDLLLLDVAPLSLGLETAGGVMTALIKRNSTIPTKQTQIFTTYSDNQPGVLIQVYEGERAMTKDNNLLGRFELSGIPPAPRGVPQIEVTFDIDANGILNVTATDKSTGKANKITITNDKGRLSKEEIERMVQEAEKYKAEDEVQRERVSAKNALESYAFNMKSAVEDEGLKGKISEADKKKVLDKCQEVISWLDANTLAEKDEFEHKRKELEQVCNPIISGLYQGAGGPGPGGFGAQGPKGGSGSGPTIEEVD
T1 sequence (P08238 whole entry): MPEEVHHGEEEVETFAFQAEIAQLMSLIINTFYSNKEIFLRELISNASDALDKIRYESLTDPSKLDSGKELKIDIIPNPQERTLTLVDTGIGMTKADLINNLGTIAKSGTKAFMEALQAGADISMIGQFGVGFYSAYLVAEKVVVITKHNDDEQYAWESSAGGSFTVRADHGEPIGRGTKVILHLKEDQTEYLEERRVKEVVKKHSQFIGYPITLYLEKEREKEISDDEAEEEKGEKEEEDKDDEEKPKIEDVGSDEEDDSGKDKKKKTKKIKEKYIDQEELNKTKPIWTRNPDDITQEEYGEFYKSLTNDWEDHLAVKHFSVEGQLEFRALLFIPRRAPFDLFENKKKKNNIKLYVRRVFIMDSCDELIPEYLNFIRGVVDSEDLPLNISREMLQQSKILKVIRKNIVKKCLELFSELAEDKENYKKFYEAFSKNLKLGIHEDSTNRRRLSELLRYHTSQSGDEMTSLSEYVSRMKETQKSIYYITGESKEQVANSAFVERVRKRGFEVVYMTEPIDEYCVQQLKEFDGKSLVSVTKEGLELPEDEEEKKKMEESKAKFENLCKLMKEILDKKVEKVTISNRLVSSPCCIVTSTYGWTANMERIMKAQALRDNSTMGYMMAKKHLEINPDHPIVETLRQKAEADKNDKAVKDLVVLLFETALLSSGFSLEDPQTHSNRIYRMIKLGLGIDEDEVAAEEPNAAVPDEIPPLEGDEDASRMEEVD

B1: human PHOX2B fragment 228-314 (XS20) (domain or fragment, UniProt Q99453 228-314, looked up)
chain: GPGGPGGEPGKGGAAAAAAAAAAAAAAAAAAAAGGLAAAGGPGQGWAPGPGPITSIPDSLGGPFASVLSSLQRPNGAKAALVKSSMF
notes: Paired mesoderm homeobox protein 2B (PHOX2B), human, residues 228-314, holds the 20-alanine tract (residues 241-260); 15N/13C-labelled for NMR; also called PHOX2B C-terminal fragment; wild-type PHOX2B; not shown: Thioredoxin, N-terminal, cleaved; His6, N-terminal, cleaved
For the molecule B1, the binding result in data set [1] is on record as “binds”.

B2: human PHOX2B fragment 228-314 with a +6 Ala expansion (XS26) (domain or fragment, UniProt Q99453 228-314, looked up)
chain: GPGGPGGEPGKGGAAAAAAAAAAAAAAAAAAAAAAAAAAGGLAAAGGPGQGWAPGPGPITSIPDSLGGPFASVLSSLQRPNGAKAALVKSSMF
notes: Made by mutagenic PCR; 15N/13C-labelled for NMR titrations; also called +6 Ala variant; expanded PHOX2B; not shown: Thioredoxin, N-terminal, cleaved; His6, N-terminal, cleaved
For the molecule B2, the binding result in data set [2], in data set [3] and in data set [4] was “binds” each time.

B3: human PHOX2B fragment 228-314 with a +3 Ala expansion (XS23) (domain or fragment, UniProt Q99453 228-314, looked up)
chain: GPGGPGGEPGKGGAAAAAAAAAAAAAAAAAAAAAAAGGLAAAGGPGQGWAPGPGPITSIPDSLGGPFASVLSSLQRPNGAKAALVKSSMF
notes: PHOX2B, human, residues 228-314 (wild-type numbering) with 3 alanines added to the 20-alanine tract (241-260); Made by mutagenic PCR; 15N/13C-labelled for NMR; also called +3 Ala variant; +3 PARM; not shown: Thioredoxin, N-terminal, cleaved; His6, N-terminal, cleaved
With B3, the binding result in data set [4] is reported as “binds”.

The record behind these values is article PMC10908835, “Alternative low-populated conformations prompt phase transitions in polyalanine repeat expansions” (Nature Communications, 2024).
